Measurements from patent publication US20090098112A1 (Genentech, published 2009).

B1: CDR-L1:N28A (Fab, part only; not given: VH end, constant domains, phage fusion, V domains shown, not shown: another chain or arm of the molecule; large carriers)
VL: DIQMTQSPSSLSASVGDRVTITCKASQAVGSDVAWYQQKPGKAPKTLIYSTSYRYSGVPSRFSGSGSGTDFTLTISSLQPEDFATYYCQQYNSYPFTFGQGTKVEIK
VH: EVQLVESGGGLVQPGGSLRLSCAASGYTFTDYYLYWVRQAPGKGLEWIGGISPSNGGTTFNDNFENKATLSVDKSKNTAYLQMNSLRAEDTAVYYCTRDAYGDWYFDVWGQGT
B2: HC:G49S (Fab, part only; not given: VH end, constant domains, phage fusion, V domains shown, not shown: another chain or arm of the molecule; large carriers)
VL: DIQMTQSPSSLSASVGDRVTITCKASQSVGSDVAWYQQKPGKAPKTLIYSTSYRYSGVPSRFSGSGSGTDFTLTISSLQPEDFATYYCQQYSSYPFTFGQGTKVEIK
VH: EVQLVESGGGLVQPGGSLRLSCAASGYTFTDYYLYWVRQAPGKGLEWISGISPSSGGTTFADAFEGKATLSVDKSKNTAYLQMNSLRAEDTAVYYCTRDAYGDWYFDVWGQGT
B3: h7H5.v1 (Fab, part only; not given: VH end, constant domains, phage fusion, V domains shown, not shown: another chain or arm of the molecule; large carriers)
VL: DIQMTQSPSSLSASVGDRVTITCKASQNVGSDVAWYQQKPGKAPKTLIYSTSYRYSGVPSRFSGSGSGTDFTLTISSLQPEDFATYYCQQYNSYPFTFGQGTKVEIK
VH: EVQLVESGGGLVQPGGSLRLSCAASGYTFTDYYLYWVRQAPGKGLEWIGGISPSNGGTTFNDNFENKATLSVDKSKNTAYLQMNSLRAEDTAVYYCTRDAYGDWYFDVWGQGT
B4: HC:A78L (Fab, part only; not given: VH end, constant domains, phage fusion, V domains shown, not shown: another chain or arm of the molecule; large carriers)
VL: DIQMTQSPSSLSASVGDRVTITCKASQSVGSDVAWYQQKPGKAPKTLIYSTSYRYSGVPSRFSGSGSGTDFTLTISSLQPEDFATYYCQQYSSYPFTFGQGTKVEIK
VH: EVQLVESGGGLVQPGGSLRLSCAASGYTFTDYYLYWVRQAPGKGLEWIGGISPSSGGTTFADAFEGKATLSVDKSKNTLYLQMNSLRAEDTAVYYCTRDAYGDWYFDVWGQGT
B5: N28S(L1)+N92S(L3)+N54S/N60A/N62A/N65S(H2) (Fab, part only; not given: VH end, constant domains, phage fusion, V domains shown, not shown: another chain or arm of the molecule; large carriers)
VL: DIQMTQSPSSLSASVGDRVTITCKASQSVGSDVAWYQQKPGKAPKTLIYSTSYRYSGVPSRFSGSGSGTDFTLTISSLQPEDFATYYCQQYSSYPFTFGQGTKVEIK
VH: EVQLVESGGGLVQPGGSLRLSCAASGYTFTDYYLYWVRQAPGKGLEWIGGISPSSGGTTFADAFESKATLSVDKSKNTAYLQMNSLRAEDTAVYYCTRDAYGDWYFDVWGQGT
B6: h7H5.v2 displayed on phage as a monovalent Fab (Fab, V domains shown)
VH: EVQLVESGGGLVQPGGSLRLSCAASGYTFTDYYLYWVRQAPGKGLEWIGGISPSSGGTTFADAFEGKATLSVDKSKNTAYLQMNSLRAEDTAVYYCTRDAYGDWYFDVWGQGT
VL: DIQMTQSPSSLSASVGDRVTITCKASQSVGSDVAWYQQKPGKAPKTLIYSTSYRYSGVPSRFSGSGSGTDFTLTISSLQPEDFATYYCQQYSSYPFTFGQGTKVEIKR
notes: also called humanized 7H5.v2; parental clone
B7: h7H5.v2 framework modification clone, heavy chain L69I, displayed on phage as a monovalent Fab (Fab, name in Kabat numbering, V domains shown)
VH: EVQLVESGGGLVQPGGSLRLSCAASGYTFTDYYLYWVRQAPGKGLEWIGGISPSSGGTTFADAFEGKATISVDKSKNTAYLQMNSLRAEDTAVYYCTRDAYGDWYFDVWGQGT
VL: DIQMTQSPSSLSASVGDRVTITCKASQSVGSDVAWYQQKPGKAPKTLIYSTSYRYSGVPSRFSGSGSGTDFTLTISSLQPEDFATYYCQQYSSYPFTFGQGTKVEIKR
notes: Single mutation in h7H5.v2 made by Kunkel mutagenesis; monovalent Fab on phage; The position is Kabat and may be shifted from the count on the entry; also called heavy chain position 69 (L69I)
B8: h7H5.v2 framework modification clone, heavy chain I48V, displayed on phage as a monovalent Fab (Fab, name in Kabat numbering, V domains shown)
VH: EVQLVESGGGLVQPGGSLRLSCAASGYTFTDYYLYWVRQAPGKGLEWVGGISPSSGGTTFADAFEGKATLSVDKSKNTAYLQMNSLRAEDTAVYYCTRDAYGDWYFDVWGQGT
VL: DIQMTQSPSSLSASVGDRVTITCKASQSVGSDVAWYQQKPGKAPKTLIYSTSYRYSGVPSRFSGSGSGTDFTLTISSLQPEDFATYYCQQYSSYPFTFGQGTKVEIKR
notes: Single mutation in h7H5.v2 made by Kunkel mutagenesis; monovalent Fab on phage; also called heavy chain position 48 (I48V)
B9: h7H5.v2 framework modification clone, heavy chain K66R, displayed on phage as a monovalent Fab (Fab, name in Kabat numbering, V domains shown)
VH: EVQLVESGGGLVQPGGSLRLSCAASGYTFTDYYLYWVRQAPGKGLEWIGGISPSSGGTTFADAFEGRATLSVDKSKNTAYLQMNSLRAEDTAVYYCTRDAYGDWYFDVWGQGT
VL: DIQMTQSPSSLSASVGDRVTITCKASQSVGSDVAWYQQKPGKAPKTLIYSTSYRYSGVPSRFSGSGSGTDFTLTISSLQPEDFATYYCQQYSSYPFTFGQGTKVEIKR
notes: Single mutation in h7H5.v2 made by Kunkel mutagenesis; monovalent Fab on phage; The position is Kabat and may be shifted from the count on the entry; also called heavy chain position 66 (K66R)

Molecular target: T1, recombinant human integrin α5β1 (R&D) (human, UniProt P08648 42-995; P05556 21-728)
T1 construct: Bought recombinant heterodimer (R&D); It was used coated on plates and in solution in the phage ELISA, and as analyte or immobilized in BIAcore; also called alpha5beta1; a5b1
T1 sequence (P08648 42-995 limits assumed, chain 1 of 2): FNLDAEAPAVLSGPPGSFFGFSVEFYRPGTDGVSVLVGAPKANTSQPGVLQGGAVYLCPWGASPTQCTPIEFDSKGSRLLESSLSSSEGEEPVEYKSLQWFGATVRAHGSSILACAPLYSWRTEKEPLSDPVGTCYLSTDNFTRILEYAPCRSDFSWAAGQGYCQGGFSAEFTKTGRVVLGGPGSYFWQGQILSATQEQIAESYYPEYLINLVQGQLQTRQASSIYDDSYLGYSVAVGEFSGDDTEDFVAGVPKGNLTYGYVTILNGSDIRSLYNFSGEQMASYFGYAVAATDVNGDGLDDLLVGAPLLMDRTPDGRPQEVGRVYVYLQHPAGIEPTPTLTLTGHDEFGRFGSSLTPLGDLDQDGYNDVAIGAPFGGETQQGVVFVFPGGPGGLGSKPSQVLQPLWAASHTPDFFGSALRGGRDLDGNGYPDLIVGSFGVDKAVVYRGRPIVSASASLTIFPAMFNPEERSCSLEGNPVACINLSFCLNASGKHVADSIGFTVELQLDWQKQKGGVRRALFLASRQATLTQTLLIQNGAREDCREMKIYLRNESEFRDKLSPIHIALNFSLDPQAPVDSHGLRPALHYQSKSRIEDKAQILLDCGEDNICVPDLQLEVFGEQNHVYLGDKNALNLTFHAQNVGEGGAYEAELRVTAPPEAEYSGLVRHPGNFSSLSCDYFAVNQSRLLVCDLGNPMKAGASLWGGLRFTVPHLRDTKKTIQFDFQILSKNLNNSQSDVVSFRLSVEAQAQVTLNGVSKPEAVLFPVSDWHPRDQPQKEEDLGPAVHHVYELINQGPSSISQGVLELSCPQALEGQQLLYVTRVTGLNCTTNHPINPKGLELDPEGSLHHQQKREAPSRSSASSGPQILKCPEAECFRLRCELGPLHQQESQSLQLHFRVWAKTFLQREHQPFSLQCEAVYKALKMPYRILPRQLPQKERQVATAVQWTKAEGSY
T1 sequence (P05556 21-728 limits assumed, chain 2 of 2): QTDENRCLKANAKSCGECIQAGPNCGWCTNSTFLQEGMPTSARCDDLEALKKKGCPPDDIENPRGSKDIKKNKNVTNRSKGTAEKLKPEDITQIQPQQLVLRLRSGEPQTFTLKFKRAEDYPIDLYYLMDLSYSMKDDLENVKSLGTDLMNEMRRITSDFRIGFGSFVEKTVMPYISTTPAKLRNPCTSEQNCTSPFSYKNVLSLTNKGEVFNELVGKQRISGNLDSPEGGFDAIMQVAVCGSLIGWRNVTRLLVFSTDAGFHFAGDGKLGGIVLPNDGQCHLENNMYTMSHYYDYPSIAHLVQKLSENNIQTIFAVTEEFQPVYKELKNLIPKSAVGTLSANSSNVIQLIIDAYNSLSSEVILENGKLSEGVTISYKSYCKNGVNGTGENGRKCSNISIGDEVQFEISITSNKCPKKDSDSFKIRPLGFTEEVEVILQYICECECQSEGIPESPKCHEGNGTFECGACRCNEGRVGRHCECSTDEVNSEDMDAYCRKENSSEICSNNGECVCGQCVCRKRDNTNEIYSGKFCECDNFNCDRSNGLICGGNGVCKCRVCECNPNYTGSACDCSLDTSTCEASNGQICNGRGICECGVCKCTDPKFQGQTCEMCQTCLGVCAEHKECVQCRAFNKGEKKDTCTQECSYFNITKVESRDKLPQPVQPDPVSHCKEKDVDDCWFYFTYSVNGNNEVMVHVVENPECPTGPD
Test: phage competition ELISA: Fab-phage incubated with serially diluted soluble human integrin α5β1, unbound phage captured on plate-coated integrin α5β1, anti-M13-HRP, A450
Protocol: Mutation at each position was generated by Kunkel mutagenesis using a separate oligonucleotide. Phage competition ELISA was utilized for evaluating all of the variants. […] Binding affinities (IC50) against human integrin α5β1 was determined.
(§1) MAXISORP™ microtiter plates were coated with recombinant human integrin α5β1 (R&D) at 5 μg/ml in PBS overnight and then blocked with PBST buffer (0.5% BSA and 0.05% Tween 20 in PBS) for an hour at room temperature. Phage from culture supernatants were incubated with serially diluted human integrin α5β1 in PBST buffer in a tissue-culture microtiter plate for an hour, after which 80 μl of the mixture was transferred to the target-coated wells for 15 minutes to capture unbound phage. The plate was washed with PBT buffer (0.05% Tween 20 in PBS), and HRP-conjugated anti-M13 (Amersham Pharmacia Biotech) was added (1:5000 in PBST buffer) for 40 minutes. The plate was washed with PBT buffer and developed by adding tetramethylbenzidine substrate (Kirkegaard and Perry Laboratories, Gaithersburg, Md.). The absorbance at 450 nm was plotted as a function of target concentration in solution to determine phage IC₅₀.

Point of comparison: B4, IC50 (read off the curve) 0.09 nM. Against it:
- B1 — 2.2-fold higher, 0.2 nM
- B2 — within 1.5-fold, 0.07 nM
- B3 — 1.8-fold lower, 0.05 nM
- B5 — 2.2-fold lower, 0.04 nM
- B6 — 1.5-fold lower, ~0.06 nM
- B7 — 1.8-fold lower, ~0.05 nM

B8: binds.
B9: binds.

Molecular target: T1, recombinant human integrin α5β1 (R&D)
Test: phage competition ELISA IC50 of the Fab-phage against human integrin α5β1, relative to parental h7H5.v1; down arrow = loss, up arrow = improvement of binding affinity
Protocol: Substitutions with other resides at various positions was achieved by Kunkel mutagenesis using a separate oligonucleotide for each position. […] The IC50 values for binding affinity were determined by phage competition ELISA in FIG. 6. Two variants, h7H5.v2 and h7H5.v3 as indicated were selected to include glycine substitution at position 65 of CDR-H2, cloned into hIgG1 vector, and evaluated binding affinities using BIAcore instrument.
as §1

B1 gave a Relative Fold to h7H5.v1 of 2.1 fold.
